B1: TPR t1 (parent)
chain: GACCAAUCUGCCCUCAGAGCUCGAGAACAUCUUCGGAUGCAGAGGAGGCAGGCUUCGGUGGCGCGAUAGCGCCAACGUCCUCAACCUCCAAUGCAUCCCACCACAUGAUGAUGCCUGAAGAGCCUUGGUUUUUUG

Variants of: B1
Experiment: polymerase ribozyme fitness, log enrichment relative to wild type (log ratio); higher = more active; in vitro selection for triplet polymerase activity
Summary of the method: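 Each subunit of a heterodimeric triplet polymerase ribozyme was represented by a PCR-built, transcribed mutant library that underwent triplicate single-round in vitro selection with frozen incubation at −7 °C. Extended constructs were recovered by gel excision, streptavidin-bead capture and RT-PCR, and Illumina sequencing of input and output libraries kept genotypes with ≥10 input reads and ≥1 read per output. Fitness is the logarithm of genotype enrichment relative to wild-type enrichment, from inverse-variance-weighted replicate averages, with a logarithm base of 2.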

Row | Variant | polymerase ribozyme fitness (log ratio)
1 | C76G C82G G128U | -3.7
2 | U67G | -7.14
3 | C4G C12A C40A C72U G77U | -3.43
4 | G36C C86A | -1.45
5 | U9G C72G G113A G120A | -1.17
6 | C80A C114G G117U | -6.34
7 | G48U A121U | 0.519
8 | G45A G61A A74U | -1.29
9 | G48A G63U | -0.443
10 | C70G A90C C114U A121G | -4.76
11 | U32C C80U A83U C123G U130G | -1.77
12 | A6G C11G G52U U59A G60C | -0.455
13 | U78G C80U G93U | -1.61
14 | C28A U112C U116G U130A U132C | -5.19
15 | A5U C64G C88G C104A A121G | -7.55
16 | G45U U106A U129C | -1.68
17 | G48U C72U C73A G127A G135C | -1.64
18 | G47C A111G C123U | -3.06
19 | C72U U96G U126C | -1.75
20 | C76A C89A U133C | -2.43
21 | U81A G117U | -3.99
22 | C115A G128U U133A | -3.05
23 | G42U G52C U55A | -2.16
24 | A26U C56U C72U | -3.04

Row | Variant | polymerase ribozyme fitness (log ratio)
25 | U21A U81A C101A G113C | -4.64
26 | U9G A27C C98U | -4.04
27 | G60A U130A | -0.439
28 | G93C G117C | -4.74
29 | A5C C11U C40U G48U G60U U87A A111C | -4.98
30 | A50C C76G C82A G120C | -0.0695
31 | G19C C101A | -3.27
32 | A6U G60C G120U | 0.248
33 | C56U C86U G117A | -1.37
34 | A18U G63U | -4.1
35 | A41U G71C G117U | -5.03
36 | C20A G45C G57C C73G U106C U130G | -4.17
37 | G60A C88U G120A G122U | 0.196
38 | C12G A46G G128C U131A | -2.32
39 | C3A A6C A91U U125A | -3.02
40 | C99U C124A | -1.1
41 | G48C U55G C62A C79U A84C C85G G93U C124A | -0.918
42 | U21G G93A C114U | -3.41
43 | A27U C88U C102A | -5.16
44 | G48A G60U C104A | -1.82
45 | G35A A41C U54C C64A A84G C101U C123U | -7.59
46 | A5G C8G | -0.847
47 | C11G A26C G77U U81A C97U G113A | -6.37
48 | A41U G61A C102A U133G | -3.96

Row | Variant | polymerase ribozyme fitness (log ratio)
49 | U7A C12G G17U A105G G120C | -4.05
50 | A74C G77C | -0.117
51 | G69U C88A G127C U131A | -2.72
52 | C40G G127C | -1.55
53 | C115A U132A | 0.0612
54 | A46G G47C U96A | -3.35
55 | C12G G36U C56U A121U G122U | 0.307
56 | C86U G93U U106C C124U U126A | -2.34
57 | G60U A74U G110U G127A | -4.43
58 | C62G A100C | -3.47
59 | A2G C12U C89G | -0.965
60 | A5U G71A C98U G127A G128U | -5.31
61 | G10A U96A | -0.657
62 | U54G C62U U81A | -1.77
63 | G44U C72U C115U U129G | -4.96
64 | U7A C8G A16C A46U C70A | -3.78
65 | C11G U32C G35C C97U G120C | -2.23
66 | C72U U129G | -1.46
67 | G117U U130C | -2.04
68 | G47A A90C U112A | -2.17
69 | C86U G113A G127C | -1.64
70 | G39C C72U | -1.18
71 | C49U C86U C97U G117C C124A | -4.42
72 | G48U G110U | -2.84

Row | Variant | polymerase ribozyme fitness (log ratio)
73 | A50C C73A U92G U112A G135A | -3.24
74 | G19A A50U G113C | -2.01
75 | U9A G45U C73U C98U | -0.532
76 | G36U C97A | -0.428
77 | C11G C73U U96A | -0.543
78 | C8G G65C C114U C123A | -7.69
79 | G19A C20U U55G G57U C99A G113U | -6.19
80 | U7A U33A | -3.98
81 | A27U A46G | -2.59
82 | C123U U129A | 0.307
83 | C4U A18C A29G C56A | -4.17
84 | C3U C11A | -1.47
85 | A43C U112G U126G G128U | -3.02
86 | C13U A108G G120A | -1.12
87 | C11G G39A C49G C53U G69A G120C | -2.46
88 | G128A U131A | -2.44
89 | G10C U14G C70U A91C | -4.25
90 | A16U C85U | -2.77
91 | C3A G17U A18C A24U U32G C40G G42U A43G U109C | -6.6
92 | C11U G19U U54A G71A A121C G135U | -4.33
93 | C15A A46C G52U C56U C115G | -6.86
94 | A6U C115G | -1.25
95 | C13U C56U G60C C73A | -0.677
96 | G51U C70G | -5.67

Row | Variant | polymerase ribozyme fitness (log ratio)
97 | C8U U96G G110U | -2.02
98 | C80A C85U C86A U87C | -7.24
99 | U7G C70G C102U U106A | -4.46
100 | C94U C104U | -0.577
101 | C13U G113U | -2.4
102 | G36U C124U | 0.315
103 | C11U C13A C89U | -2.3
104 | G52A C115U | -2
105 | C3A A74U G120U U125A | -0.657
106 | C73A A91U C94U | -2.58
107 | A6G A24C C88G C102A A111U G122C U133G | -6.51
108 | C4G U54A G60C | -1.88
109 | C82U U96G G122A | -1.25
110 | A46U C53U G69C U87C | -2.13
111 | U54C G77U C79A C88U | -1.68
112 | C73A G117U | -2.74
113 | C15U G61C U125A | -2.92
114 | G10U C101A | -1.56
115 | C62A C101G C104U | -2.15
116 | A43U G120C | -0.477
117 | C11A G69U | -0.0927
118 | C12U G113A U125A | -0.67
119 | U14A G36U C40G C56A A84G C97A | -7.86
120 | A16U U116G | 0.557

Row | Variant | polymerase ribozyme fitness (log ratio)
121 | G17U U21A C62G A75C C124U | -4.5
122 | C12U A18C | -1.45
123 | U32G C56A C97A U109A | -6.23
124 | G47C C49G | -2.19
125 | C8G G36U | 0.298
126 | G45A G71A G113A C124U | -2.34
127 | C13U G52C C94G A100U G113A | -2.95
128 | C8U C22G U96A | -2.59
129 | U21G A84C | -2.02
130 | G19U A121U | 0.0875
131 | A41U G52A U59C A108G C114G U125G | -5.99
132 | A5C A37C C70U G110U | -4.1
133 | C3A C34U C53A C89A C123G | -5.9
134 | U54G G93A A111U | -3.35
135 | U7G C12A C97U G117C | -3.54
136 | C94U A108U C114U U131G | -7.59
137 | A43U G45A C56G G113A | -0.304
138 | C3G G39C C53G G113U | -5.93
139 | C8G C22G G47A C70U G77U | -4.84
140 | A2G G36A C49G G61U A83U G110U U129C | -4.82
141 | G10U C53U | 0.0146
142 | U55C A91U C94A | -2.3
143 | C89A U129G | -2.64
144 | U21G A26U C72A C104A G110U U125G | -7.09

Row | Variant | polymerase ribozyme fitness (log ratio)
145 | U33A G48U U55C U109C A121G C124A G127C | -5.45
146 | G113C U130G | -2.88
147 | C20A G42C G48U G122U | -4.09
148 | C49U C64A U81A G93U C114G C123U | -6.8
149 | A6U G42U C89G C115A U125C | -3.18
150 | G44A C94U U126G | -2.82
151 | U9G C20U G51U C94U | -4.89
152 | C53A G63A | -0.638
153 | C49A G52U G71C | -1.75
154 | C12U C13U C40G C76A G77A U131C | -0.917
155 | C20G C53U G60A U96A | -5.21
156 | C102U C104A U130C | -0.457
157 | A5U A6G A46C G61A C115G | -2.35
158 | A26G C40U G63C U81C U130A | -4.66
159 | C4U C53G G57U G110A | -1.58
160 | G63A A90U | -3.43
161 | C15U G39C G71A | -2.36
162 | G10C G42C | -2.24
163 | C85G A90U G127C U133A | -4.53
164 | G45C G93U A121U | -1.16
165 | U106C C123U | 0.901
166 | U59C C102U C114G | -5.47
167 | G36U C72G C102U | -3.82
